According to FireProtDB (doi:10.1021/bi701365e):
Where “and” joins values, the source holds several entries; their conditions need not be identical. Equal entries are not always repeated.

Settings: Helicobacter pylori (strain ATCC 700392 / 26695), pH 9, Thermal, EPPS 50 mM, reversible: Yes (>80%), whole UniProt chain shown

B1: Flavodoxin wild type, O25776 (protein)
chain: MGKIGIFFGTDSGNAEAIAEKISKAIGNAEVVDVAKASKEQFNSFTKVILVAPTAGAGDLQTDWEDFLGTLEASDFATKTIGLVGLGDQDTYSETFAEGIFHIYEKAKAGKVVGQTPTDGYHFEASKAVEGGKFVGLVIDEDNQDDLTDERISKWVEQVKGSFA
DSC, transition: 3
  unfolding enthalpy (van 't Hoff): 29 kcal/mol and 50 kcal/mol
Fluorescence, transition: 4
  unfolding enthalpy (van 't Hoff): 44 kcal/mol
